The target in one assay is HLA-A*02:02. In words: IEDB peptide-MHC binding, cellular MHC/competitive/fluorescence; ≥ and ≤ were set here for values at or beyond the usual limits of such assays.
In another assay the target is HLA-A*02:03. The description is as above.
The target in another assay is HLA-A*02:06. Described as above.
For another assay, the target named is HLA-A*02:01. Described as above.
A further assay concerns the target HLA-A*68:02. In words: IEDB peptide-MHC binding, purified MHC/competitive/radioactivity; ≥ and ≤ were set here for values at or beyond the usual limits of such assays.
Where [1] appears, read: source organism: Vaccinia virus WR.
Where [2] appears, read: source organism: Mammarenavirus choriomeningitidis.

The term IC50 denotes the concentration that inhibits the measured activity by half. As for ETFPNVHEHI, the IC50 in the assay with HLA-A*02:02 (setting [1]) is 8.02 µM; with HLA-A*02:03 (setting [1]), 6.62 µM; in the assay with HLA-A*02:06 (setting [1]), at least 70 µM; in the assay with HLA-A*02:01 (setting [1]), 23.9 µM; with HLA-A*68:02 (setting [1]), 0.00045 µM.

With ETIQKDINI, the IC50 in the assay with HLA-A*02:02 (setting [1]) was 36.6 µM; with HLA-A*02:03 (setting [1]) it was 50.8 µM; with HLA-A*02:06 (setting [1]), 34.9 µM; with HLA-A*02:01 (setting [1]) it was at least 70 µM; with HLA-A*68:02 (setting [1]), 0.046 µM.

On to ETKRNIARHL, for which the concentration for half-maximal inhibition (IC50) with HLA-A*02:02 (setting [1]) is 50 µM; in the assay with HLA-A*02:03 (setting [1]), 12.4 µM; with HLA-A*02:06 (setting [1]), at least 70 µM; with HLA-A*02:01 (setting [1]), at least 70 µM; with HLA-A*68:02 (setting [1]), 0.721 µM.

As to ETNIGCAVNT, the IC50 with HLA-A*02:02 (setting [1]) is at least 70 µM; with HLA-A*02:03 (setting [1]) it was 37 µM; with HLA-A*02:06 (setting [1]) it was at least 70 µM; with HLA-A*02:01 (setting [1]) it was 58.4 µM; with HLA-A*68:02 (setting [1]) it was 0.022 µM.

Take ETVKMGAFM: the IC50 is 15 µM in the assay with HLA-A*02:02 (setting [1]); 7.43 µM in the assay with HLA-A*02:03 (setting [1]); 40.2 µM in the assay with HLA-A*02:06 (setting [1]); at least 70 µM in the assay with HLA-A*02:01 (setting [1]); 0.081 µM with HLA-A*68:02 (setting [1]).

For EVIGLTTHCT, the IC50 with HLA-A*02:02 (setting [1]) is 10.5 µM; in the assay with HLA-A*02:03 (setting [1]), 14.9 µM; in the assay with HLA-A*02:06 (setting [1]), 12.2 µM; with HLA-A*02:01 (setting [1]), 24.8 µM; with HLA-A*68:02 (setting [1]), 0.017 µM.

Consider FTELENKKV, for which the IC50 in the assay with HLA-A*02:02 (setting [1]) was 19.6 µM; with HLA-A*02:03 (setting [1]) it was 8.08 µM; with HLA-A*02:06 (setting [1]) it was 6.84 µM; with HLA-A*02:01 (setting [1]), at least 70 µM; with HLA-A*68:02 (setting [1]) it was 3.98 µM.

In the case of GLESIEQNLT, the IC50 is 7.02 µM in the assay with HLA-A*02:02 (setting [1]); 61.3 µM with HLA-A*02:03 (setting [1]); at least 70 µM with HLA-A*02:06 (setting [1]); 34.4 µM in the assay with HLA-A*02:01 (setting [1]); 1.44 µM with HLA-A*68:02 (setting [1]).

Regarding HNASDFYGL, the IC50 with HLA-A*02:02 (setting [2]) is 6.51 µM; in the assay with HLA-A*02:03 (setting [2]), at least 70 µM; in the assay with HLA-A*02:06 (setting [2]) it was 21.8 µM; in the assay with HLA-A*02:01 (setting [2]) it was 15.5 µM; with HLA-A*68:02 (setting [2]) it was 0.147 µM.

With HTKFWISDNT, the IC50 with HLA-A*02:02 (setting [1]) is 21.5 µM; in the assay with HLA-A*02:03 (setting [1]), 60.2 µM; with HLA-A*02:06 (setting [1]), at least 70 µM; with HLA-A*02:01 (setting [1]), at least 70 µM; with HLA-A*68:02 (setting [1]), 0.623 µM.

Consider IAIFNNRNL, for which the IC50 with HLA-A*02:02 (setting [1]) was 9.23 µM; with HLA-A*02:03 (setting [1]) it was 10.5 µM; with HLA-A*02:06 (setting [1]), 13.5 µM; with HLA-A*02:01 (setting [1]), 38.5 µM; with HLA-A*68:02 (setting [1]), 0.262 µM.

For the sequence LIYYQNEVT, the half-maximal inhibitory concentration (IC50) with HLA-A*02:02 (setting [1]) was found to be 14 µM; with HLA-A*02:03 (setting [1]), 5.21 µM; with HLA-A*02:06 (setting [1]), 8.51 µM; with HLA-A*02:01 (setting [1]), 27.9 µM; with HLA-A*68:02 (setting [1]) it was 1.08 µM.

Regarding LTHGADPNA, the IC50 in the assay with HLA-A*02:02 (setting [1]) was 19.4 µM; with HLA-A*02:03 (setting [1]), 10.5 µM; in the assay with HLA-A*02:06 (setting [1]) it was 29.4 µM; with HLA-A*02:01 (setting [1]) it was at least 70 µM; with HLA-A*68:02 (setting [1]), 1.37 µM.

Turning to LTSNCTRTT, the IC50 with HLA-A*02:02 (setting [1]) is at least 70 µM; with HLA-A*02:03 (setting [1]), 29.6 µM; in the assay with HLA-A*02:06 (setting [1]), 40.7 µM; in the assay with HLA-A*02:01 (setting [1]), at least 70 µM; with HLA-A*68:02 (setting [1]), 2.02 µM.

Turning to MAFILGIII, the 50% inhibitory concentration (IC50) is 9.54 µM with HLA-A*02:02 (setting [1]); 9.76 µM with HLA-A*02:03 (setting [1]); 32.5 µM with HLA-A*02:06 (setting [1]); 5.87 µM in the assay with HLA-A*02:01 (setting [1]); 4.93 µM in the assay with HLA-A*68:02 (setting [1]).

In the case of NACDKHNKT, the IC50 was found to be 17.9 µM with HLA-A*02:02 (setting [1]); 9.25 µM with HLA-A*02:03 (setting [1]); 18.6 µM with HLA-A*02:06 (setting [1]); 22.5 µM with HLA-A*02:01 (setting [1]); 0.925 µM in the assay with HLA-A*68:02 (setting [1]).

In the case of NIREGTHVLL, the IC50 was determined as 8.88 µM with HLA-A*02:02 (setting [1]); 5.51 µM in the assay with HLA-A*02:03 (setting [1]); 34.6 µM with HLA-A*02:06 (setting [1]); 13.4 µM with HLA-A*02:01 (setting [1]); 2.53 µM in the assay with HLA-A*68:02 (setting [1]).

NITHTNITTL: the half-maximal inhibitory concentration (IC50) in the assay with HLA-A*02:02 (setting [1]) worked out at 10.4 µM; with HLA-A*02:03 (setting [1]) it was 5.02 µM; with HLA-A*02:06 (setting [1]), 8.17 µM; in the assay with HLA-A*02:01 (setting [1]), 10.1 µM; with HLA-A*68:02 (setting [1]) it was 4.91 µM.

Values taken from the Immune Epitope Database (IEDB).
